Experimental data from publication PMC11973430, “Rubisco packaging and stoichiometric composition of the native β-carboxysome in Synechococcus elongatus PCC7942” (Plant Physiology, 2024).

Molecular target: T1, Rubisco L8S8 hexadecamer (Form IB ribulose-1,5-bisphosphate carboxylase/oxygenase) of Synechococcus elongatus … (Synechococcus elongatus PCC7942 …, UniProt Q31NB3 1-472; Q31NB2 1-111)
T1 construct: Rubisco large subunit RbcL, Synechococcus elongatus PCC7942, GenBank ABB57456.1; 52.4 kDa; Rubisco small subunit RbcS, Synechococcus elongatus PCC7942, GenBank ABB57457.1; 13.3 kDa; Native holoenzyme imaged inside isolated β-carboxysomes; not separated from the other carboxysome proteins; also called Rubisco complex; Form IB Rubisco; source: endogenous, inside β-carboxysomes purified from Syn7942 …
T1 sequence (Q31NB2 whole entry, chain 2 of 2, other chains not shown): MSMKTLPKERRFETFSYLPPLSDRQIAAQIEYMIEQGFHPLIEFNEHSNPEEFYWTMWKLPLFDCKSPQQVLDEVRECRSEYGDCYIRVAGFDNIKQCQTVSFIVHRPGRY
Experiment: cryo-EM structure; cryoET and subtomogram averaging (emClarity, D4 symmetry) of Rubisco inside isolated native Syn7942 β-carboxysomes (185 carboxysomes) in TEMB buffer (10 mM Tris-HCl pH 8.0, 1 mM EDTA, 10 mM MgCl2, 20 mM NaHCO3); 3.5 Å
Details: partners not purified

- stoichiometry N: 4 CcmM SSUL domains per Rubisco L8S8
B1: Carboxysome scaffolding (linker) protein CcmM of Synechococcus elongatus PCC7942 (natural protein, UniProt Q03513-2 1-324, looked up)
chain: MSAYNGQGRLSSEVITQVRSLLNQGYRIGTEHADKRRFRTSSWQPCAPIQSTNERQVLSELENCLSEHEGEYVRLLGIDTNTRSRVFEALIQRPDGSVPESLGSQPVAVASGGGRQSSYASVSGNLSAEVVNKVRNLLAQGYRIGTEHADKRRFRTSSWQSCAPIQSSNERQVLAELENCLSEHEGEYVRLLGIDTASRSRVFEALIQDPQGPVGSAKAAAAPVSSATPSSHSYTSNGSSSSDVAGQVRGLLAQGYRISAEVADKRRFQTSSWQSLPALSGQSEATVLPALESILQEHKGKYVRLIGIDPAARRRVAELLIQKP
notes: CcmM, Synechococcus elongatus PCC7942, GenBank AAA27306.1; present in the native β-carboxysome as two isoforms, the full-length 58-kDa CcmM58 and the 35-kDa truncated CcmM35 (three SSUL domains each); Mixture of CcmM35 and CcmM58 in the native carboxysome; also called CcmM35; CcmM58; source: endogenous, inside β-carboxysomes purified from Syn7942 (sucrose gradient ultracentrifugation)
